Target: T1, human TIM-3 full length, overexpressed on CHO-S cells (human, UniProt Q8TDQ0 22-301)
T1 construct: cells fixed with 4% PFA on plates; also called HAVCR2; Tim-3-overexpressing CHO-S cells
Assay: cell-based ELISA on fixed CHO-S cells overexpressing human TIM-3, HRP-labeled secondary antibody, OD450

EC50 (read off the curve): ~0.2 nM
B1: ABTim-3 (antibody, V domains shown)
VH: QVQLQQPGAELVKPGASVKMSCKASGYTFTSYNMHWIKQTPGQGLEWIGDIYPGNGDTSYNQKFKGKATLTADKSSSTVYMQLSSLTSEDSAVYYCARVGGAFPMDYWGQGTSVTVSS
VL: DIVLTQSPASLAVSLGQRATISCRASESVEYYGTSLMQWYQQKPGQPPKLLIYAASNVESGVPARFSGSGSGTDFSLNIHPVEEDDIAIYFCQQSRKDPSTFGGGTKLEIK
